{"source": "the supplement of paper PMC9732359", "note": "± gives the uncertainty stated by the source.", "data": [{"assay": "protein stability index of a GFP-peptide fusion (yeast GPS) (PSI 1-4); higher = more stable; sorted into four equal gates, so the index is relative within each strain", "settings": "doa10∆", "in_short": "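Yeast carrying a pooled library were grown to mid-log phase in leucine-free medium. Each library plasmid expresses Cherry and has a tiled 17-residue yeast protein peptide fused downstream of GFP. Cells were sorted into four equal gates by GFP/Cherry ratio, and plasmids from each gate were PCR-amplified, Illumina-sequenced and assigned to strains by barcode. Summing, across gates, the read frequency times the gate number gave each peptide's protein stability index.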", "values": [{"sequence": "LIVDTHVQFRLGNVDAF [PRP8]", "protein stability index": "2.75 ± 0.11"}, {"sequence": "LKIIYTGLCSFDYSVIL [YJL039C/NUP192]", "protein stability index": "1.73 ± 0.081"}, {"sequence": "LKKNNYNSFPHSNLEKI [SIR4]", "protein stability index": "3.06 ± 0.099"}, {"sequence": "LKKRYDLSYNFNVHEVP [YMR129W/POM152]", "protein stability index": "2.78 ± 0.05"}, {"sequence": "LKKVQQQQQAAALANAN [SWI1]", "protein stability index": "1.83 ± 0.063"}, {"sequence": "LKLCLGDHSSVPVALKG [YMR129W/POM152]", "protein stability index": "2.79 ± 0.086"}, {"sequence": "LKLLVKLYTFLARRTDA [RPL18A]", "protein stability index": "2.26 ± 0.073"}, {"sequence": "LKLNHIIANINSFTKGN [SNU114]", "protein stability index": "1.52 ± 0.059"}, {"sequence": "LKMQQQQQQQQQQQQQQ [GAL11]", "protein stability index": "2.69 ± 0.084"}, {"sequence": "LKNCKISNINIPISSET [SMC1]", "protein stability index": "2.81 ± 0.17"}, {"sequence": "LKNKNFKCQEKDKGVYV [SIR2]", "protein stability index": "3.53 ± 0.22"}, {"sequence": "LKNMLYVLSTAVEFESV [BRR2]", "protein stability index": "1.77 ± 0.038"}, {"sequence": "LKPDLNKITNQGVTCLH [NAS6]", "protein stability index": "2.36 ± 0.11"}, {"sequence": "LKQDLKKISSFKSLIDE [YGL172W/NUP49]", "protein stability index": "2.81 ± 0.052"}, {"sequence": "LKQHNQNNLPPNFFLTL [BRR2]", "protein stability index": "2.81 ± 0.064"}, {"sequence": "LKRFPKMSVTCNAQPIT [BRR2]", "protein stability index": "2.33 ± 0.066"}, {"sequence": "LKSASKETAPVIDTLAA [RPL28]", "protein stability index": "2.07 ± 0.072"}, {"sequence": "LKSHYYQTCKNSEYLKR [SMC2]", "protein stability index": "1.54 ± 0.067"}, {"sequence": "LKTRDWIVVLPWFWLLP [POP1]", "protein stability index": "1.51 ± 0.12"}, {"sequence": "LKTVIILSSLYLLSIWV [CYT1]", "protein stability index": "2.12 ± 0.11"}, {"sequence": "LKVLSEHLDCMNFISKE [PCI8]", "protein stability index": "2.72 ± 0.09"}, {"sequence": "LKWVAVVPDLGHLNGHT [SSN2]", "protein stability index": "3.12 ± 0.07"}, {"sequence": "LKYLDDLKAQFQELDSK [RPN9]", "protein stability index": "3.13 ± 0.097"}, {"sequence": "LLDNEIRIFRSELQRLS [RPT5]", "protein stability index": "2.4 ± 0.26"}, {"sequence": "LLDTNSLEENAMSTVTL [SKI6]", "protein stability index": "3.11 ± 0.086"}, {"sequence": "LLEETQAKLKKNVETLE [SMC4]", "protein stability index": "3.39 ± 0.092"}, {"sequence": "LLEFFELVFSKGVYLIL [YML103C/NUP188]", "protein stability index": "2.13 ± 0.087"}, {"sequence": "LLERYIGNLITRQFEGR [PRP8]", "protein stability index": "2.59 ± 0.11"}, {"sequence": "LLFNNDFPLLKVLAAHT [RRP40]", "protein stability index": "1.23 ± 0.13"}, {"sequence": "LLGKESFKKIIKFLLTF [YCS4]", "protein stability index": "1.45 ± 0.063"}, {"sequence": "LLICIGTSLKVAPVSEI [SIR2]", "protein stability index": "1.91 ± 0.11"}, {"sequence": "LLIRKLPFQRLVREIAQ [HHT1]", "protein stability index": "1.29 ± 0.085"}, {"sequence": "LLISLNILFSLWKLLST [YLR018C/POM34]", "protein stability index": "1.63 ± 0.071"}, {"sequence": "LLKEKPNALKPLSESLR [RRP6]", "protein stability index": "2.71 ± 0.059"}, {"sequence": "LLKELSKNAQFICTTFR [SMC3]", "protein stability index": "2.45 ± 0.063"}, {"sequence": "LLKKATKPEVASDMSDE [CDC53]", "protein stability index": "2.67 ± 0.11"}, {"sequence": "LLKKKDDPSKVRLLCRS [YLR335W/NUP2]", "protein stability index": "2.12 ± 0.047"}, {"sequence": "LLLKLASPHASVRTAVF [ECM29]", "protein stability index": "1.88 ± 0.048"}, {"sequence": "LLLLSLFKKITNVNPSK [YML103C/NUP188]", "protein stability index": "1.89 ± 0.03"}, {"sequence": "LLNILSGLPTCDYYNTF [RPN2]", "protein stability index": "2.44 ± 0.1"}, {"sequence": "LLNINGSRKVAGILRGY [SMX2]", "protein stability index": "2.64 ± 0.14"}, {"sequence": "LLPPIKIELIKNNLLIP [RPN12]", "protein stability index": "2.16 ± 0.071"}, {"sequence": "LLREKQRVRNMRELGLI [YOR098C/NUP1]", "protein stability index": "1.19 ± 0.19"}, {"sequence": "LLRNLESKMRQQEAKYR [YDL088C/ASM4]", "protein stability index": "1.22 ± 0.058"}, {"sequence": "LLSDVNQNQRNVNETMS [SMC3]", "protein stability index": "3.06 ± 0.12"}, {"sequence": "LLSEHDDHNGEVWSVSW [YGL100W/SEH1]", "protein stability index": "2.62 ± 0.068"}, {"sequence": "LLSIPISCPLIGVIQLA [FAS1]", "protein stability index": "1.23 ± 0.07"}, {"sequence": "LLSKLLLKHPFKAIHGS [YCS4]", "protein stability index": "2.37 ± 0.051"}, {"sequence": "LLSLISTTAALQSISSL [RPN7]", "protein stability index": "1.94 ± 0.053"}, {"sequence": "LLSQFGIKVLPETCLFV [YML103C/NUP188]", "protein stability index": "2.1 ± 0.075"}, {"sequence": "LLTNSNNGSSNNNTQNT [SNF5]", "protein stability index": "2.99 ± 0.082"}, {"sequence": "LLVERLKEDDSSLYEAS [RPN1]", "protein stability index": "3.22 ± 0.12"}, {"sequence": "LLVLLQDVIKVLYQSNA [SWP82]", "protein stability index": "1.84 ± 0.074"}, {"sequence": "LLVQKRFKYAPGTIVLY [RPS3]", "protein stability index": "2.51 ± 0.12"}, {"sequence": "LMLKKLKNSIMSFIFPS [YML031W/NDC1]", "protein stability index": "2.21 ± 0.058"}, {"sequence": "LMTKLNSFKLFKAEKLQ [RPC17]", "protein stability index": "1.97 ± 0.059"}, {"sequence": "LNARMFLKYYGAHKFLD [SIR2]", "protein stability index": "1.89 ± 0.092"}, {"sequence": "LNATTAMDLAQMLIQGV [BRR2]", "protein stability index": "3.08 ± 0.18"}, {"sequence": "LNDHIDDFEVNVASLVR [GRR1]", "protein stability index": "3.29 ± 0.087"}, {"sequence": "LNEAQGHIVSLELTTGA [SMD3]", "protein stability index": "1.47 ± 0.053"}, {"sequence": "LNEITNSKVNKLNIETM [DSN1]", "protein stability index": "2.81 ± 0.16"}, {"sequence": "LNGGLQFVPELKEFTAK [FAS2]", "protein stability index": "2.75 ± 0.11"}, {"sequence": "LNHVVSLIENKKAKLVL [RPL8B]", "protein stability index": "2.46 ± 0.088"}, {"sequence": "LNICRQCFREKANDIGF [RPS29A]", "protein stability index": "2.8 ± 0.094"}, {"sequence": "LNIDWSTTGDNGELDLS [MED2]", "protein stability index": "2.2 ± 0.057"}, {"sequence": "LNISGEFFRNKLKYHDF [RPL16A]", "protein stability index": "1.32 ± 0.13"}, {"sequence": "LNKDSTNEFVGSPSLTS [NUT1]", "protein stability index": "2.96 ± 0.062"}, {"sequence": "LNKFKKAIFQFVCRGMA [ECM29]", "protein stability index": "2.06 ± 0.1"}, {"sequence": "LNKSDLLDKYGKTGLSN [YML103C/NUP188]", "protein stability index": "3.38 ± 0.12"}, {"sequence": "LNNNNNNNNTTTTTTTT [SWI1]", "protein stability index": "3.06 ± 0.062"}, {"sequence": "LNSLTNLLSKRNQEKKM [SNM1]", "protein stability index": "2.89 ± 0.078"}, {"sequence": "LNTKSIQIDEETENSES [MCD1]", "protein stability index": "2.16 ± 0.096"}, {"sequence": "LNYTVINFKSREAIRPG [AAR2]", "protein stability index": "3.07 ± 0.069"}, {"sequence": "LPDELTLSYDDISAAIV [DLS1]", "protein stability index": "2.56 ± 0.055"}, {"sequence": "LPEKVNFRTMQQQQMQQ [SSN2]", "protein stability index": "2.3 ± 0.18"}, {"sequence": "LPFQRLVREIAQDFKTD [HHT1]", "protein stability index": "1.93 ± 0.066"}, {"sequence": "LPKAWISLAVEGEPVNS [COR1]", "protein stability index": "1.38 ± 0.12"}, {"sequence": "LPKLKATGHRVLIFFQM [SNF2]", "protein stability index": "1.69 ± 0.13"}, {"sequence": "LPLRLQFNEFIQIMANI [PGD1]", "protein stability index": "1.52 ± 0.078"}, {"sequence": "LPNEAGRLEIFKIHTAK [RPT4]", "protein stability index": "2.6 ± 0.16"}, {"sequence": "LPNLGTPDDDEIDVENH [RPN8]", "protein stability index": "1.53 ± 0.076"}, {"sequence": "LPPNWKYESATASALVN [RPS13]", "protein stability index": "2.21 ± 0.081"}, {"sequence": "LPPPEDVAFLKTAYSIY [RPN1]", "protein stability index": "2.4 ± 0.06"}, {"sequence": "LPSEERIQKIISKRKEE [YIL149C/MLP2]", "protein stability index": "1.74 ± 0.08"}, {"sequence": "LPSSNGSSRIIASDGSE [RRP42]", "protein stability index": "3.08 ± 0.091"}, {"sequence": "LQDEVMNIKPVQKQTRA [RPS2]", "protein stability index": "2.91 ± 0.2"}, {"sequence": "LQEKFLNQIATLKIHLK [IRR1]", "protein stability index": "1.22 ± 0.12"}, {"sequence": "LQKEKELHKEGTISKLE [SMC2]", "protein stability index": "2.89 ± 0.075"}, {"sequence": "LQLIIFLRTQFLKLYVL [RGR1]", "protein stability index": "1.25 ± 0.1"}, {"sequence": "LQNCCIIDVGTHHTDII [ARP9]", "protein stability index": "1.43 ± 0.11"}, {"sequence": "LQPIFKGEEAKLDSKKT [SSN3]", "protein stability index": "3.52 ± 0.2"}, {"sequence": "LQQAKLRESEISQKLTN [SMC3]", "protein stability index": "3.18 ± 0.076"}, {"sequence": "LQQGMRGAWGKPHGLAA [RPL10]", "protein stability index": "2.47 ± 0.1"}, {"sequence": "LQSISSLTISLYASDYA [RPN7]", "protein stability index": "1.71 ± 0.031"}, {"sequence": "LQSIVNEISRNGTMINE [PCI8]", "protein stability index": "2.93 ± 0.12"}, {"sequence": "LQVADKFFRVKYENKIS [SMC3]", "protein stability index": "2.14 ± 0.073"}, {"sequence": "LQYLPLYAVSTFENTNN [SIR4]", "protein stability index": "1.82 ± 0.038"}, {"sequence": "LRACAANVDQISFLEPI [YMR129W/POM152]", "protein stability index": "3.06 ± 0.072"}, {"sequence": "LRDTFIELDQVLNMLYW [RPO21]", "protein stability index": "2.19 ± 0.1"}, {"sequence": "LRLFINEEGDWSCIVVE [ITC1]", "protein stability index": "2.74 ± 0.088"}, {"sequence": "LRNWEELNIIPRDLLRV [PRP28]", "protein stability index": "1.09 ± 0.068"}, {"sequence": "LRQLASYYSREQDALFI [RPN1]", "protein stability index": "1.7 ± 0.045"}, {"sequence": "LRRRTASHNVRRIPKRM [POP1]", "protein stability index": "2.98 ± 0.065"}, {"sequence": "LRSKTSAGRIESNNPSH [SIR4]", "protein stability index": "2.56 ± 0.1"}]}]}
